Data: patent publication US20250250357A1

Key:
[1] = target: monkey MSLN full-length protein (NCBI: XP_028696439.1) on HEK293T cells (monkey); test: FACS on HEK293T-monkey MSLN cells; antibody 0.032 nM
[2] = target: human MSLN full-length protein (NCBI: AAH09272.1) on stably transfected CHO-K1 or HEK293T cells (human) (UniProt Q13421); test: FACS on HEK293T-hMSLN-2A7 cells; secondary antibody control 1
[3] = target: human MSLN full-length protein (NCBI: AAH09272.1) on stably transfected CHO-K1 or HEK293T cells (human) (UniProt Q13421); test: FACS on CHO-K1-hMSLN-2C5 cells; secondary antibody control 37
[4] = target: human MSLN full-length protein (NCBI: AAH09272.1) on stably transfected CHO-K1 or HEK293T cells (human) (UniProt Q13421); test: FACS on CHO-K1-hMSLN clone 2C8, overlay with secondary antibody only
[5] = target: human MSLN full-length protein (NCBI: AAH09272.1) on stably transfected CHO-K1 or HEK293T cells (human) (UniProt Q13421); test: FACS on CHO-K1-hMSLN-2C8 cells; antibody 0.0064 nM
[6] = target: monkey MSLN full-length protein (NCBI: XP_028696439.1) on HEK293T cells (monkey); test: FACS on HEK293T-monkey MSLN cells; antibody 4 nM
[7] = target: human MSLN full-length protein (NCBI: AAH09272.1) on stably transfected CHO-K1 or HEK293T cells (human) (UniProt Q13421); test: FACS on CHO-K1-hMSLN-2C8 cells; secondary antibody control 37
[8] = target: human MSLN full-length protein (NCBI: AAH09272.1) on stably transfected CHO-K1 or HEK293T cells (human) (UniProt Q13421); test: FACS on HEK293T-hMSLN-B8 cells; secondary antibody control 1
[9] = target: monkey MSLN full-length protein (NCBI: XP_028696439.1) on HEK293T cells (monkey); test: FACS on HEK293T-monkey MSLN cells; antibody 0.8 nM
[10] = target: human MSLN full-length protein (NCBI: AAH09272.1) on stably transfected CHO-K1 or HEK293T cells (human) (UniProt Q13421); test: FACS on CHO-K1-hMSLN-2C8 cells; antibody 0.032 nM
[11] = target: human MSLN full-length protein (NCBI: AAH09272.1) on stably transfected CHO-K1 or HEK293T cells (human) (UniProt Q13421); test: FACS on CHO-K1-hMSLN-2C8 cells; antibody 4 nM
[12] = target: monkey MSLN full-length protein (NCBI: XP_028696439.1) on HEK293T cells (monkey); test: FACS on HEK293T-monkey MSLN cells; antibody 20 nM
[13] = target: human MSLN full-length protein (NCBI: AAH09272.1) on stably transfected CHO-K1 or HEK293T cells (human) (UniProt Q13421); test: FACS on CHO-K1-hMSLN-2C8 cells; antibody 100 nM
[14] = target: human MSLN full-length protein (NCBI: AAH09272.1) on stably transfected CHO-K1 or HEK293T cells (human) (UniProt Q13421); test: FACS on CHO-K1-hMSLN-2C8 cells; antibody 0.8 nM
[15] = target: human MSLN full-length protein (NCBI: AAH09272.1) on stably transfected CHO-K1 or HEK293T cells (human) (UniProt Q13421); test: FACS on CHO-K1-hMSLN-2C8 cells; antibody 0.00128 nM
[16] = target: monkey MSLN full-length protein (NCBI: XP_028696439.1) on HEK293T cells (monkey); test: FACS on HEK293T-monkey MSLN cells; antibody 0.00128 nM
[17] = target: human MSLN full-length protein (NCBI: AAH09272.1) on stably transfected CHO-K1 or HEK293T cells (human) (UniProt Q13421); test: FACS on CHO-K1-hMSLN clone 2D11, overlay with secondary antibody only
[18] = target: human MSLN full-length protein (NCBI: AAH09272.1) on stably transfected CHO-K1 or HEK293T cells (human) (UniProt Q13421); test: FACS on CHO-K1-hMSLN-2C8 cells; antibody […]
[19] = target: human MSLN full-length protein (NCBI: AAH09272.1) on stably transfected CHO-K1 or HEK293T cells (human) (UniProt Q13421); test: FACS on CHO-K1-hMSLN-2C8 cells; antibody 20 nM
[20] = target: human MSLN full-length protein (NCBI: AAH09272.1) on stably transfected CHO-K1 or HEK293T cells (human) (UniProt Q13421); test: FACS on HEK293T-hMSLN-2A4 cells; secondary antibody control 1
[21] = target: human MSLN full-length protein (NCBI: AAH09272.1) on stably transfected CHO-K1 or HEK293T cells (human) (UniProt Q13421); test: FACS on CHO-K1-hMSLN-2D11 cells; secondary antibody control 37
[22] = target: human MSLN full-length protein (NCBI: AAH09272.1) on stably transfected CHO-K1 or HEK293T cells (human) (UniProt Q13421); test: FACS on CHO-K1-hMSLN clone 2C5, overlay with secondary antibody only
[23] = target: monkey MSLN full-length protein (NCBI: XP_028696439.1) on HEK293T cells (monkey); test: FACS on HEK293T-monkey MSLN cells; antibody 100 nM
[24] = target: monkey MSLN full-length protein (NCBI: XP_028696439.1) on HEK293T cells (monkey); test: FACS on HEK293T-monkey MSLN cells; antibody 0.0064 nM
[25] = target: monkey MSLN full-length protein (NCBI: XP_028696439.1) on HEK293T cells (monkey); test: FACS on HEK293T-monkey MSLN cells; antibody […]

B1: Tab020 (YP223, rabbitIgG1) (antibody, V domains shown)
VH: QEQLEESGGDLVQPEGSLTLTCKASGLDFSSSYWICWVRQAPGKGLEWIGCRHTFTANTWSASWVNGRFTISRSTSLGTVDLKMTSLTAADTATYFCARDESNNDGWDFKLWGPGTLVTVSS
VL: AYDMTQTPASVSAAVGGTVTIKCQASQSISNYLAWYQQKPGQPPKLLIYQASTLAPGVSSRFKGSGSGTEFTLTISGVECADAATYYCQQGYTSSNVENVFGGGTGVVVGD
FACS fluorescence intensity [1]: 85
Mean fluorescence intensity of cells [2]: 6580
Mean fluorescence intensity of cells [3]: 206000
percent of cells in the APC-A+ gate [4]: 99.4%
FACS fluorescence intensity [5]: 96
FACS fluorescence intensity [6]: 90
Mean fluorescence intensity of cells [7]: 234000
Mean fluorescence intensity of cells [8]: 24400
FACS fluorescence intensity [9]: 88
FACS fluorescence intensity [10]: 206
FACS fluorescence intensity [11]: 9000
FACS fluorescence intensity [12]: 100
FACS fluorescence intensity [13]: 15300
FACS fluorescence intensity [14]: 2290
FACS fluorescence intensity [15]: 75
FACS fluorescence intensity [16]: 85
percent of cells in the APC-A+ gate [17]: 100%
FACS fluorescence intensity [18]: 593
FACS fluorescence intensity [19]: 15400
Mean fluorescence intensity of cells [20]: 15400
Mean fluorescence intensity of cells [21]: 218000
percent of cells in the APC-A+ gate [22]: 100%
FACS fluorescence intensity [23]: 126
FACS fluorescence intensity [24]: 85
FACS fluorescence intensity [25]: 86
